Laboratory results taken from publication PMC12221994.

Tests used:
KU70/80;DNA-PKcs;TRF2 = KU70/80;DNA-PKcs;TRF2 (human;human;human, UniProt P12956;P13010;P78527;Q15554 1-609;1-732;1-4128;1-542, ||); experiment: KU pull-down; TRF2 association with KU mediated by template DNA; Footprinting: 25 mM HEPES pH 7.6, 80 mM KCl, 1.5 mM CaCl2, 1.5 mM MgCl2, 5% glycerol, 50 ug/ml BSA, 2 mM DTT, ice then 37 C (EMSA same buffer, 37 C); pull-down: 20 mM HEPES pH 7.6, 80 mM KCl, 5% glycerol, 0.01% NP-40, 1 mM DTT, 30 C; cryo-EM: 40 mM HEPES pH 7.6, 100 mM NaCl, 3 mM MgCl2, 4 C; settings: protein: recombinant;native;recombinant; tags: FLAG (KU70 N-terminal);;dual strep; copies: 1;1;1;2; blunt
KU70/80;DNA-PKcs = KU70/80;DNA-PKcs (human;human, UniProt P12956;P13010;P78527 1-609;1-732;1-4128, |); experiment: KU pull-down; DNA-PKcs associates with KU in a DNA-dependent manner; Footprinting: 25 mM HEPES pH 7.6, 80 mM KCl, 1.5 mM CaCl2, 1.5 mM MgCl2, 5% glycerol, 50 ug/ml BSA, 2 mM DTT, ice then 37 C (EMSA same buffer, 37 C); pull-down: 20 mM HEPES pH 7.6, 80 mM KCl, 5% glycerol, 0.01% NP-40, 1 mM DTT, 30 C; cryo-EM: 40 mM HEPES pH 7.6, 100 mM NaCl, 3 mM MgCl2, 4 C; settings: protein: recombinant;native; tags: FLAG (KU70 N-terminal);; copies: 1;1;1; blunt

B1: PE3/PE4 telomeric duplex (dsDNA)
DNA 1: CGTCTATATTCTATTGTCTCTTAGGGTTAGGGTTAGGGTTAGGGTTAGGGTTAGGGTTAGGGTTAGGGTTAACATCAGTCTCACATAGATTAGCTCACGC
DNA 2: GCGTGAGCTAATCTATGTGAGACTGATGTTAACCCTAACCCTAACCCTAACCCTAACCCTAACCCTAACCCTAACCCTAAGAGACAATAGAATATAGACG
B1: binds (KU70/80;DNA-PKcs;TRF2); binds (KU70/80;DNA-PKcs).
